Laboratory results from patent US9115359B2, “Methods for producing secondary metabolites” (NewSouth Innovations Pty Limited, priority 2007, dated 2015).

B1: NhcS: phosphopantetheinyl transferase (heterocyst carrier protein synthase) from Nodularia spumigena NSOR10 (protein)
chain: MTALNHLWLPVPTNLTLLPNDVHIWRIHLDVPEAQQQNLLATLSGDELTRANRFHFQEHRQRFIAGRGILRSILGSYLGIEPQRVLFDYQERGKPILADSLAKSGLWFNLSHSQGLALCAVNYHNRIGIDLEYIRRMSDVEALAKRFFLPREYDVVRSLSDHQQQEIFFRYWTCKEAYLKATGEGLAQLEQVEVLLNPTEPAQLQTSESWSLFELRAAEDYFAAVVVEGSGCNLQCWQY

Columns and labels:
E. coli AcpS = settings: reported (21,40); with respect to CoA; cited from earlier work
Mpcp = experiment: NhcS PPT assay, ESI-MS; type: biochemical, Microcystis aeruginosa; settings: 30 min assay
Method: (§1) PPT assays were carried out as previously described in Finking, R., et al., (2002) Characterization of a new type of phosphopantetheinyl transferase for fatty acid and siderophore synthesis in Pseudomonas aeruginosa. J Biol Chem 277:50293-302). In brief, a 100-400 μL reaction comprising of 50 mM Tris-HCl pH 7.4, 12.5 mM MgCl, 0.5 mM CoA, 2 μM DTT, 30 μg of the respective carrier proteins (CPs) and 300 nM of PPT was incubated at 37° C. for 30 minutes. Reactions were terminated by the addition of 1 ml of 10% TCA. Assays were precipitated overnight at −20° C. before at centrifugation 4° C., for 15 mins at 16,000 g. Protein pellets were analysed by electrospray ionisation mass spectrometry (ESI-MS). Spectra were acquired using an API QStar Pulsar i hybrid tandem mass spectrometer (Applied Biosystems, Foster City Calif.). Samples (˜200-400 fmol) were dissolved in water:acetonitrile:formic acid (50:49:1), loaded (1 μl) into nanospray needles (Proxeon, Denmark) and the tip positioned ˜10 mm from the orifice. Nitrogen was used as curtain gas and a potential of 900 V applied to the needle. A T of MS scan was acquired (m/z 550-2000, 1 second) and accumulated for ˜1 minute into a single file. […]
(§2) Activity was detected by ionisation mass spectrometry through the mass addition of […], relating to the incorporation of the pantetheinyl arm of CoA transferred by the PPT to the CP (FIG. 17).

HetM ArCP = experiment: NhcS PPT assay, ESI-MS; type: biochemical, N. punctiforme ATCC29133; settings: 30 minutes, 37° C.
Method: as §1, §2

Nppcp = experiment: NhcS PPT assay, ESI-MS; type: biochemical, Nostoc punctiforme; settings: 30 minutes, 37° C.
Method: as §1, §2

[1] = test system: Synechocystis sp. PCC6803; experiment: Complementation of Sppt gene disruption with NsPPT; type: cell-based; settings: PCR screening of segregation
Text: A 2.5 kb fragment including Sppt (slr0495, Swissprot accession number Q55185) was amplified with the primers sirup (5′-[…]-3′) (SEQ ID NO: 7) and slrdn (5′-[…]-3′) (SEQ ID NO: 8). This fragment was cloned into pGEM-T-Easy (Promega) and digested with the restriction enzyme AvaI. A chloramphenicol (Chl^R) resistance cassette was ligated into this site and the resulting plasmid, pGCSlr, was naturally transformed into Synechocystis sp. PCC6803 to insertionally inactivate Sppt using methods described in Eaton-Rye, J., 2004 The construction of gene knockouts in the cyanobacterium Synechocystis sp. PCC 6803, Methods Mol. Biol.; 274:309-24. The Synechocystis sp. PCC6803 wildtype (WT) was also transformed with a chloramphenicol resistance knockout plasmid as a positive control for strain viability. Briefly, approximately 2 ml Synechocystis sp. PCC6803 cells were centrifuged and washed in BG-11 media. After resuspension in […] BG-11, 3 μg ml^−1 plasmid was added and the cells were incubated at 25° C. in 30 μmol m^−2 sec^−1 constant light for 6 hours. The cells were spread onto sterile nitrocellulose filters (0.45 μm, Millipore, Billerica Mass.) on non-selective BGTS plates (BG-11, 10 mM TES, 0.3% sodium thiosulfate, 1% agar). After 36 hours, the filters were transferred to selective BGTS plates with 10 μg ml^−1 chloramphenicol. […]

Row | Molecule | kcat value (E. coli AcpS) | pantetheinylation of Mpcp (Mpcp) | conversion of apo-ArCP to holo-ArCP (HetM ArCP) | pantetheinylation of Nppcp (Nppcp) | Sppt gene disruption in NsPPT-complemented strain [1]
1 | CC(C)(COP(=O)(O)OP(=O)(O)OC[C@H]1O[C@@H](n2cnc3c(N)ncnc32)[C@H](O)[C@@H]1OP(=O)(O)O)[C@@H](O)C(=O)NCCC(=O)NCCS [CoA, co-enzyme A] | approximately 10 min^d |  |  |  | 
2 | B1 |  | Complete pantetheinylation | conversion of the apo-ArCP (15.75 kDa) to the holo-ArCP (16.05 kDa) is seen | Nppcp was pantetheinylated | Sppt was effectively disrupted in the NsPPT-complemented strain
